Numbering of substitutions follows the chain as printed.

The labels stand for the following.
B1: phage clone No. 53 (S5) (VHH)
VHH: QVQLVESGGGLVQAGGSLRVSCAASGGTFSSTAMGWFRQAPGKEREFVAAISWSGGYTYYADSVRGRFTISRDNALNTVSLQMNSLKPEDTAVYYCAADISGLDTVAAGIFTEPNIDYWGKGTLVTVSS
B2: phage clone No. 77 (S29) (VHH)
VHH: QLQLVESGGGLVQPGGSLRLSCTASGIIFSINTMGWYRQAPGKQRELVADISSFGSTNYADSVKGRFTISRDNAKNSVYLQMNSLKPEDTAVYYCNAHDKGWGTVDSWGQGTQVTVSS
B3: phage clone No. 24 (C24) (VHH)
VHH: QVQLVESGGGLVQPGGSLRLSCAASGPIFSINTMGWYRQAPGKQRELVATMHSTGSTNYADSVKGRFTISRDNAKKTVYLQMNSLKPDDTAVYYCHVDDTGWGTVDSWGQGIQVTVSS
B4: phage clone No. 70 (S22) (VHH)
VHH: B3 VHH with V2L, P27S, T100M, I112T
B5: phage clone No. 45 (C45) (VHH)
VHH: B3 VHH with A40V, I112T
B6: phage clone No. 30 (C30) (VHH)
VHH: B3 VHH with A23V, P27S, S30A, T50D, T77K, T100R, I112T
B7: phage clone No. 61 (S13) (VHH)
VHH: B3 VHH with V2L, A23V, A24V, P27S, S30A, T54Y, D88A, V97A, I112T
B8: phage clone No. 55 (S7) (VHH)
VHH: QLQLVESGGGLVQPGGSLRLSCAASGSIFSINGMGWYRQAPGKQREAVAVITSGGKIDYLDSVKGRFTISRDSAKNTVALQMNSLKPEDTAVYYCNAYGDVRRGEVRWGQGTQVTVSS
B9: phage clone No. 71 (S23) (VHH)
VHH: B8 VHH with L2V, A47L, V50A, I57T, R102Q
B10: phage clone No. 66 (S18) (VHH)
VHH: QLQLVESGGGLVQPGGSLRLSCAASGSIFSINTMGWYRQAPGKQRELVATMTSHGSTNYADSVKGRFTISRDNSKNTVYLQMNSLKLQDTAVYYCNANDMGWGTVDAWGQGTLVTVSS
B11: phage clone No. 29 (C29) (VHH)
VHH: QVQLVESGGGLVQAGGSLRLSCVASGFTSDDYVIGWFRQAPGKEREGVSCISSSDGTTNYADSVKGRFTISSDNAKNTVYLQMNSLKPEDTAVYYCAADPMRVCPYSGTYYGILGFGTSGQGTQVTVSS
B12: phage clone No. 20 (C20) (VHH)
VHH: QVQLVESGGGLVQPGGSLRLSCAASGSIFSINTMGWYRQAPGKQRELVATMHSTGSTNYADSVKGRFTISRDNAKKTVYLQMNSLEPDDTAVYYCHVDDTGWGTVDSWGQGTQVTVS
B13: phage clone No. 37 (C37) (VHH)
VHH: QLQLVESGGGLVQAGGSLRLSCAASGLTFEDYAIGWFRQAPGKEREGISCIRIYDGNTYSAESVKGRFTISSDNAKNQVYLQINTLKPEDTAVYYCAAGSYYSCSVYPDYDMDYWGKGTLVTVSS
B14: phage clone No. 2 (C2) (VHH)
VHH: B13 VHH with L2V, A14P, L27F, F29L, E30D, D31Y
B15: phage clone No. 42 (C42) (VHH)
VHH: B13 VHH with L2V
B16: phage clone No. 27 (C27) (VHH)
VHH: QLQLVESGGGLVQPGGSLRLSCVVSGSIFAINTMGWYRQAPGKQRELVATMHSGGSTNYADSVKGRFTISRDAAPKTVYLQMNSLKPADTAVYYCHADDSGWGTVDSWGQGIQVTVSS
B17: phage clone No. 54 (S6) (VHH)
VHH: QVQLVESGGGLVQPGGSLRLSCAVSGTIFSINTMGWYRQVPGKQRELVATITSSGSTKYADSVKGRFTVSRDNAKRTVFLQMDSLKPEDTAVYYCHANDVGWGTVNAWGQGTLVTVSS
B18: phage clone No. 46 (C46) (VHH)
VHH: QVQLVESGGGLVQAGGSLRLSCAASGVTFDDLAIGWFRQVPGKGREGVSTIGTSDGTAYYADSVKGRFTISSDNAKNTVYLQMNSLKPEDTAVYYCAVDLDYGLGSLLPMGYDYWGQGTQVTVSS

For this assay, the target named is Fc protein. Put plainly: phage ELISA on coated Fc protein.
For the molecule B1, the OD450 came out at 0.068. The molecule B2 registered an OD450 of 0.08. B3 gave an OD450 of 0.083. Then B4, with 0.059; and B5, with 0.115; and B6, with 0.103. Then B7, with 0.094; and B8, with 0.059; and B9, with 0.093. Take B10: the OD450 is 0.081. Then B11, with 0.115; and B12, with 0.133; and B13, with 0.11. Then B14, with 0.149; and B15, with 0.111. Then B16, with 0.084; and B17, with 0.058; and B18, with 0.081.
